Measured values: patent US20100249383A1, “Novel Ligand Involved In The Transmigration Of Leukocytes Across the Endothelium and Uses Therefor” (The Regents of The University of California and The Burnham …, priority 2001, published 2010)

Columns and labels:
human S100A9 = biological target: T1, human S100A9 (human, UniProt P06702 2-114, limits assumed); assay: co-purification from human neutrophil cytosol
T1 construct: also called MRP14; MRP9
T1 sequence (looked up): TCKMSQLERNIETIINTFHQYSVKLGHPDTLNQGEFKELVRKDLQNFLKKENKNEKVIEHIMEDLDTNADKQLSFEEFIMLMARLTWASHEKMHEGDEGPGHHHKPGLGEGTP
Excerpt: Chem., 266:7706 [1991]). […] The proteins remained as heteromeric complexes through purification, were even retained on YM10 and YM30 ultrafiltration membranes, and could not be separated into individual proteins without denaturation. The molecular masses of the purified proteins as determined by SDS gels was 11 kDa and 14 kDa for S100A8 and S100A9 respectively (data not shown). […] Binding to BSA coupled asialo-COO⁻ bovine lung glycopeptides immobilized on microtiter plates was inhibited in presence of 0.3 M asialo-COO⁻ glycopeptides, but much less effectively by the asialo-CONHMe-glycopeptides. In FIG. 19, each point is the mean of two determinations.
All steps were carried out at 4° C., unless otherwise indicated. […] Briefly, 100 ml peripheral blood was obtained from healthy volunteers and neutrophils obtained by Ficoll-Hypaque centrifugation as indicated above. The cells were lysed in PBS containing 1 mM DTT, 1% NP40 and protease inhibitors, and subjected to ultracentrifugation at 160,000×g for 30 min. The protein in the supernatant was adjusted to 2 mg/ml with the above buffer, and the solution stirred on ice. Solid ammonium sulfate was slowly added to a final concentration of 75% (w/v) and stirred for 1 h. […] S100A8/A9 proteins eluted at 35-50% acetonitrile, and were >90% pure as determined by SDS gels.

[1] = biological target: the molecule itself; assay: BS3 chemical cross-linking of neutrophil extracts, immunoblot
Protocol: In these experiments, 96-well plates were coated with 250 ng of BSA coupled […] asialo-COO⁻ lung glycopeptides for 4 h at 37° C. and blocked with 3% BSA in PBS overnight. Human neutrophil extracts were sequentially incubated in each of four wells for 30 min/well at 37° C. in leukocyte activation buffer (described above), in presence or absence of 200 μM […] asialo-COO⁻ glycopeptides or asialo-CONHMe-glycopeptides. After incubation, the supernatants from the incubation wells were collected and protein depletion was analyzed by immunoblotting using the respective antibodies. For detection of S100A8/A9 complexes, the proteins in the supernatants were stabilized by chemical cross-linking using bis-sulfosuccinimidyl suberate (BS³) as known in the art (See, Staros, Biochem., 21:3590 [1982]). Briefly, the cross linker was added from a fresh 2 mM stock solution to neutrophil lysates obtained as described above, to a final concentration of 200 μM, and the mixture was incubated at room temperature for 30 min. Reactions were quenched by the addition of 1 M Tris to a final concentration of 10 mM and samples were stored at −80° C., until they were assayed. Cross-linked samples were incubated with 2-mercaptoethanol prior to separation on SDS-PAGE. Since crude lysates were used in the cross-linking, it is conceivable that non-specific cross-linking could occur. […]

[2] = biological target: T2, RAGE deglycosylated by PNGase F (bovine, UniProt Q28173 23-416, N-linked oligosaccharides removed by PNGase F (mass decreased by about 4500 daltons)); assay: saturation binding of 125I amphoterin to immobilized RAGE deglycosylated by PNGase F
T2 construct: also called deglycosylated RAGE; PNGase F digested RAGE
T2 sequence (looked up): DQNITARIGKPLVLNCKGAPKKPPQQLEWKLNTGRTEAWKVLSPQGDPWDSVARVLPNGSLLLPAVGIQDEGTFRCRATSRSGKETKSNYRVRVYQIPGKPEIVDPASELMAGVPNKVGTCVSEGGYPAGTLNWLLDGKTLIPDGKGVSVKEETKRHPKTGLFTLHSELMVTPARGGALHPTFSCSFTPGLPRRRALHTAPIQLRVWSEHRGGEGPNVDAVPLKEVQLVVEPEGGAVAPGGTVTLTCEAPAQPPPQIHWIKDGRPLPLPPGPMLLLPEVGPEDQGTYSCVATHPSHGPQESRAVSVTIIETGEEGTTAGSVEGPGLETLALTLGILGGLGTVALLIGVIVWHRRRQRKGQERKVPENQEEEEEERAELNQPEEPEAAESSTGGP
Protocol: (§1) Amphoterin was radioiodinated using Na ¹²⁵I and Iodo-Beads Iodinating Reagent (Pierce) to a specific activity of 5×10³ cpm/ng protein. Saturation binding experiments were done by a slight modification of the method of Hori et al (Hori at al., J. Biol. Chem., 270:25752-61 [1995]). Briefly, purified RAGE was immobilized on microliter wells and the wells blocked with 3% BSA. Wells were incubated at 4° C. overnight with increasing concentrations of ¹²⁵I amphoterin in HBSS containing 0.1% BSA in the presence or absence of desialylated carboxylate-enriched (COO⁻) or CONHMe bovine lung glycopeptides, or 20 μg/ml mAbGB3.1 or an unrelated anti-carbohydrate monoclonal antibody, or 100 fold excess of unlabeled amphoterin. Binding was also tested on RAGE deglycosylated by PNGase F under non-denaturing conditions. Wells were washed, bound amphoterin was eluted with 2 M NaCl, and radioactivity was measured using a gamma counter. Non-linear regression analysis was done using the GraphPad Prism program.
The binding of a single concentration of labeled ligand was also tested in presence of various concentrations of COO⁻ or neutral glycopeptides. […] Binding was also found to be reduced in presence of mAbGB3.1, while a non-relevant antibody is ineffective (FIG. 24, Panel C).

[3] = biological target: T3, RAGE from bovine lung (native, purified/immunoprecipitated) (bovine, UniProt Q28173 23-416, carries PNGaseF-sensitive carboxylated N-linked oligosaccharides); assay: saturation binding of 125I amphoterin to immobilized RAGE in presence of soluble COO- glycopeptides
T3 construct: Released from mAbGB3.1 beads after immunoprecipitation of bovine lung homogenate; also called bovine lung RAGE; bovine RAGE
T3 sequence (looked up): T2 sequence (looked up)
Protocol: as §1
(§2) Specific binding is defined as the total binding minus non-specific binding measured in presence of 100-fold excess of unlabeled amphoterin. The […] binding was 3-4% of total binding. Then, the possibility that amphoterin binding is dependent upon the N-glycans on RAGE was examined.

[4] = biological target: T3, RAGE from bovine lung (native, …); assay: saturation binding of 125I amphoterin to RAGE immobilized on microtiter wells, non-linear regression
Protocol: as §1, §2

B1: human S100A8 (other, UniProt P05109 1-93, looked up)
chain: MLTELEKALNSIIDVYHKYSLIKGNFHAVYRDDLKKLLETECPQYIRKKGADVWFKELDINTDGAVNFQEFLILVIKMGVAAHKKSHEESHKE
notes: also called MRP8; CP-10
binding result (human S100A9): binds | binding result [1]: binds

B2: amphoterin (baculovirus expressed rat amphoterin) (ligand, UniProt P63159 2-215, looked up)
chain: GKGDPKKPRGKMSSYAFFVQTCREEHKKKHPDASVNFSEFSKKCSERWKTMSAKEKGKFEDMAKADKARYEREMKTYIPPKGETKKKFKDPNAPKRPPSAFFLFCSEYRPKIKGEHPGLSIGDVAKKLGEMWNNTAADDKQPYEKKAAKLKEKYEKDIAAYRAKGKPDAAKKGVVKAEKSKKKKEEEDDEEDEEDEEEEEEEEDEDEEEDDDDE
modifications: radioiodinated (125I) in the binding assays
notes: the only purified amphoterin in the materials is the baculovirus expressed rat protein; also called recombinant amphoterin
Kd [2]: ~18.2 nM | Kd [3]: ~12.6 nM | Kd [4]: ~10.7 nM
